Laboratory results: patent publication US20260015418A1 (ABL BIO, published 2026)
Substitutions are numbered along the chain they refer to. Numbers in names are those of the source. Where “and” joins values, the source holds several entries; their conditions need not be identical. Equal entries are not always repeated. Values belong to the binder of their own block, whether it stands above or below them.

What was measured:
[1] = biological target: T1, human ROR1 protein (ROR1-His; Sino Biological, Catalog #13968-H08H) (human, UniProt Q01973 30-406); test: SACE ELISA on human ROR1-His; antibody stored 2 weeks at 37°C
T1 construct: extracellular domain; Bought protein; also called human recombinant ROR1 protein
Method: (§1) The binding affinity of the anti-ROR1 antibody-antigen was evaluated using an ELISA-based solution binding assay. Specifically, 96-well microtiter plates (Nunc-Immuno Plates, NUNC) were coated with ROR1 protein (ROR1-His; sino biological, Catalog #13968-H08H) at a concentration of 1 μg/ml in PBS solution at 4° C. for 16 hours, and non-specific binding sites were blocked with 1% (v/v) BSA (bovine serum albumin) for 2 hours.
(§2) Subsequently, on the 96-well microtiter plates, anti-ROR1 antibodies at concentrations stated in FIGS. 1a to 1c were added to the microtiter plates, and their binding capabilities were analyzed by ELISA as follows. Specifically, after incubating at 37° C. for 2 hours, the plates were washed five times with PBS containing 0.05% (v/v) Tween 20, then the HRP-conjugated Fab polyclonal antibody reagent (Pierce, Catalog #31414) was diluted at a 1:30,000 ratio and added to the washed microtiter plates, then reacted for 1 hour at 37° C., then detected the bound anti-ROR1 antibodies. After reaction, the color was developed using TMB (tetramethylbenzidine, Sigma, T0440). The enzymatic reaction was stopped with 0.5 mol/L sulfuric acid, and the absorbance was read at 450 nm and 650 nm using a microplate reader (Molecular Devices). […]

[2] = biological target: T1, human ROR1 protein (ROR1-His; Sino …); test: SACE ELISA on human ROR1-His; antibody stored 2 weeks at 4°C; BA6 IgG (WT), stored at 4° C.
Method: as §1, §2

[3] = biological target: T1, human ROR1 protein (ROR1-His; Sino …); test: ELISA, plate coated with ROR1-His (1 ug/ml), bound antibody detected with HRP-conjugated anti-Fab polyclonal antibody, OD at 450 nm; upper graph and table
Method: as §1
(§3) Subsequently, on the 96-well microtiter plates, anti-ROR1 antibodies at concentrations stated in FIGS. 1a to 1c were added to the microtiter plates, and their binding capabilities were analyzed by ELISA as follows. Specifically, after incubating at 37° C. for 2 hours, the plates were washed five times with PBS containing 0.05% (v/v) Tween 20, then the HRP-conjugated Fab polyclonal antibody reagent (Pierce, Catalog #31414) was diluted at a 1:30,000 ratio and added to the washed microtiter plates, then reacted for 1 hour at 37° C., then detected the bound anti-ROR1 antibodies. After reaction, the color was developed using TMB (tetramethylbenzidine, Sigma, T0440). The enzymatic reaction was stopped with 0.5 mol/L sulfuric acid, and the absorbance was read at 450 nm and 650 nm using a microplate reader (Molecular Devices).

[4] = biological target: T1, human ROR1 protein (ROR1-His; Sino …); test: as above; remark: listed apart in the source
Method: as §1, §3

[5] = biological target: T1, human ROR1 protein (ROR1-His; Sino …); test: ELISA, plate coated with ROR1-His (1 ug/ml), bound antibody detected with HRP-conjugated anti-Fab polyclonal antibody, OD at 450 nm
Method: as §1, §3

[6] = biological target: T1, human ROR1 protein (ROR1-His; Sino …); test: SACE ELISA on human ROR1-His
Method: as §1, §2

[7] = biological target: T1, human ROR1 protein (ROR1-His; Sino …); test: ELISA, plate coated with ROR1-His (1 ug/ml), bound antibody detected with HRP-conjugated anti-Fab polyclonal antibody, OD at 450 nm; lower graph and table
Method: as §1, §3

[8] = biological target: T1, human ROR1 protein (ROR1-His; Sino …); test: as above; remark: listed apart in the source
Method: as §1, §3

[9] = biological target: T2, human B7-H3 on CHO-huROR1-huB7-H3 cells (human, UniProt Q5ZPR3 29-534); test: flow cytometry on CHO-huROR1-huB7-H3 cells, FITC anti-human IgG, MFI over secondary antibody only
T2 construct: whole, on cells; also called cell surface B7-H3
T2 sequence (looked up): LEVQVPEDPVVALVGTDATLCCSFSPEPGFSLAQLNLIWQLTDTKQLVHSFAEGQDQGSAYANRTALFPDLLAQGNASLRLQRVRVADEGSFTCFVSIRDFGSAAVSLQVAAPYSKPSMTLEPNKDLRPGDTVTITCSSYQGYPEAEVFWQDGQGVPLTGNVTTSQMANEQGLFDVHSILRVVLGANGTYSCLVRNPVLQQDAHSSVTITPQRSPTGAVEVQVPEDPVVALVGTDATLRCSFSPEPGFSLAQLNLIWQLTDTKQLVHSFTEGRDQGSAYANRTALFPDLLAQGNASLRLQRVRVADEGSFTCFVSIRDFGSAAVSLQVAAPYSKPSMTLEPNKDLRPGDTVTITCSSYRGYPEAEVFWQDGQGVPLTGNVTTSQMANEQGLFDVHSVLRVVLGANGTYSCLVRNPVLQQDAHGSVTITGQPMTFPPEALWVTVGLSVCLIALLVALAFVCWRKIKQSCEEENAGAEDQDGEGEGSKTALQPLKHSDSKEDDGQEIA
From the text: (§4) To evaluate the cell-binding ability of the anti-ROR1/B7-H3 bispecific antibody, cells expressing both ROR1 and B7-H3 were used to compare the cell-binding ability of the bispecific antibody with that of the monospecific antibodies.
(§5) As a cell line for the comparison of cell-binding ability, CHO-huROR1-huB7-H3 cell line (obtained by transfecting the ROR1-CHO recombinant cell line (BPS Bioscience) with the human B7-H3 gene (Origene) and selecting for the desired gene-inserted single cells using G418), which stably transfected the human ROR1 and human B7-H3 gene to artificially overexpress both human ROR1 and human B7-H3 proteins were used, and analysis was performed using a flow cytometer (LSRFortessa X-20, BD Biosciences). Specifically, after dissociating and washing the overexpressing cell line with PBS, the cell number was counted, and the cells were seeded at a density of 2×10⁵ cells per well into a V-bottom 96-well plate (96 Well Plate-RV, Bioneer, 910D09). Antibodies diluted 4-fold starting from 100 nM in 1% BSA solution were added at 100 μL per well to the centrifuged cells and incubated at 4° C. for 1 hour. […] After the reaction, the cells were washed twice with the same buffer, resuspended in 100 μL of PBS, and analyzed using a FACS instrument. A total of 10,000 cells were detected per measurement, and the data was analyzed using FlowJo software. […]

[10] = biological target: T3, human ROR1 on cells (NCI-N87, CHOK1-hROR1, AGS, CHO-huROR1-huB7-H3) (human, UniProt Q01973 30-937); test: as above
T3 construct: whole, on cells; also called cell surface ROR1
From the text: as §4, §5

[11] = biological target: T1, human ROR1 protein (ROR1-His; Sino …); test: SACE ELISA on human ROR1-His; antibody stored 2 weeks at 4°C
Method: as §1, §2

[12] = biological target: T1, human ROR1 protein (ROR1-His; Sino …); test: ELISA, plate coated with ROR1-His (1 ug/ml), bound antibody detected with HRP-conjugated anti-Fab polyclonal antibody, OD at 450 nm; upper table (the graph's legend names the third curve M8_N97G)
Method: as §1, §3

EC50 [8]: 0.299 nM
B3: BA6 IgG(NA) (antibody, V domains shown)
VH: EVQLLESGGGLVQPGGSLRLSCAASGFTFSNYDMSWVRQAPGKGLEWVSAIYHSGSSKYYADSVKGRFTISRDNSKNTLYLQMNSLRAEDTAVYYCARGGNGAWDTGFDYWGQGTLVTVSS
VL: QSVLTQPPSASGTPGQRVTISCSGSSSNIGSNDVSWYQQLPGTAPKLLIYYDNNRPSGVPDRFSGSKSGTSASLAISGLRSEDEADYYCGAWDDSLSGYVFGGGTKLTVLG

EC50 [4]: 2.76 nM
B4: M10 (PTM mutant of BA6 IgG) (antibody, V domains shown)
VH: B3 VH with N101Y
VL: QSVLTQPPSASGTPGQRVTISCSGSSSNIGSNDVSWYQQLPGTAPKLLIYYDNNRPSGVPDRFSGSKSGTSASLAISGLRSEDEADYYCGAWDDSLSGYVFGGGTKLTVL
notes: IgG of BA6 with one CDRH3 mutation; Kabat H97 (same column as M9)

EC50 [1]: 0.129 nM
EC50 (read off the curve) [10]: ~0.7 nM
EC50 [11]: 0.166 nM
Ratio (EC50, 4°C sample against 37°C sample) [6]: 129%
EC50 [7]: 0.144 nM and 0.133 nM
B7: BA6M11 anti-ROR1 antibody (IgG) (antibody, V domains shown)
VH: B3 VH with N101S
VL: B4 VL with D52E
notes: IgG form; also called BA6 IgG (M11); double mutant D51E (LC)+N97S (HC)

EC50 [4]: 7.56 nM
B8: M8 (PTM mutant of BA6 IgG) (antibody, V domains shown)
VH: B3 VH with N101G
VL: B4 VL
notes: as for B4

EC50 [8]: 12.5 nM
B13: M7 (PTM mutant of BA6 IgG) (antibody, V domains shown)
VH: B3 VH with G102R
VL: B4 VL
notes: IgG of BA6 with one CDRH3 mutation

EC50 [12]: 1.08 nM
B14: M9 (PTM mutant of BA6 IgG) (antibody, V domains shown)
VH: B3 VH with N101S
VL: B4 VL
notes: IgG of BA6 with one CDRH3 mutation; Kabat H97

The remaining lines, values behind:

B1: BA6 antibody (WT) (antibody, V domains shown)
VH: B3 VH
VL: B4 VL
notes: Anti-ROR1 antibody from WO2019-225992 A1, said to be based on IgG1; only the variable domains are tied to the monospecific IgG; also called BA6 IgG (WT); parental clone
EC50 [1]: 0.261 nM
EC50 [2]: 0.217 nM
EC50 [3]: 1 nM
EC50 [4]: 0.707 nM
EC50 [5]: 0.293 nM
Ratio (EC50, 4°C sample against 37°C sample) [6]: 83.1%
EC50 [7]: 0.215 nM
EC50 [8]: 0.293 nM

B2: B5 (antibody, V domains shown)
VH: EVQLLESGGGLVQPGGSLRLSCAASGFTFSDYAMSWVRQAPGKGLEWVSSISSGSGSIYYADSVKGRFTISRDNSKNTLYLQMNSLRAEDTAVYYCAKNLIPLDYWGQGTLVTVSS
VL: B4 VL with D33A, D52N, N53S, N54H, A91S, D94A, S97N, G98A
notes: also called anti-B7-H3 monospecific antibody B5; anti-B7-H3 antibody clone B5 (WO2019-226017 A1)
EC50 (read off the curve) [9]: ~1 nM

B5: M3 (PTM mutant of BA6 IgG) (antibody, V domains shown)
VH: B3 VH
VL: B4 VL with D52E
notes: IgG of BA6 with one mutation; Kabat L51
EC50 [3]: 0.755 nM
EC50 [4]: 0.478 nM
EC50 [5]: 0.333 nM
EC50 [7]: 0.189 nM

B6: M1 (PTM mutant of BA6 IgG) (antibody, V domains shown)
VH: B3 VH
VL: B4 VL with D52A
notes: IgG of BA6 with one mutation
EC50 [5]: 0.326 nM

B9: M4 (PTM mutant of BA6 IgG) (antibody, V domains shown)
VH: B3 VH
VL: B4 VL with D52S
notes: as for B5
EC50 [5]: 10.2 nM

B10: M6 (PTM mutant of BA6 IgG) (antibody, V domains shown)
VH: B3 VH with G102V
VL: B4 VL
notes: as for B13
EC50 [5]: 0.955 nM

B11: M5 (PTM mutant of BA6 IgG) (antibody, V domains shown)
VH: B3 VH with G102Y
VL: B4 VL
notes: as for B13
EC50 [5]: 3.27 nM

B12: M2 (PTM mutant of BA6 IgG) (antibody, V domains shown)
VH: B3 VH
VL: B4 VL with D52T
notes: as for B5
EC50 [5]: 10.2 nM
